In patent US6528295:

Target: methylated PP2A C subunit (epitope-tagged, immunoprecipitated), P67775
Sequence (P67775 whole entry): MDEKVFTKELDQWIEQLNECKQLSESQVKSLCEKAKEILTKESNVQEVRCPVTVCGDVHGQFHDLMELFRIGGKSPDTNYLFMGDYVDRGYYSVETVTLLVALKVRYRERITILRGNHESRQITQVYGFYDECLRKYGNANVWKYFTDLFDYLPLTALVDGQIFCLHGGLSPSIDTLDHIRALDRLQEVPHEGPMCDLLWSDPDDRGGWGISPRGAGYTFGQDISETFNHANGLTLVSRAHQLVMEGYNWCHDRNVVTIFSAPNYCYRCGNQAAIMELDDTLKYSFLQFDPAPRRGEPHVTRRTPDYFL

B1: recombinant human Protein Phosphatase Methylesterase-1 (PME-1) (protein)
chain: MSALEKSMHLGRLPSRPPLPGSGGSQSGAKMRMGPGRKRDFSPVPWSQYFESMEDVEVENETGKDTFRVYKSGSEGPVLLLLHGGGHSALSWAVFTAAIISRVQCRIVALDLRSHGETKVKNPEDLSAETMAKDVGNVVEAMYGDLPPPIMLIGHSMGGAIAVHTASSNLVPSLLGLCMIDVVEGTAMDALNSMQNFLRGRPKTFKSLENAIEWSVKSGQIRNLESARVSMVGQVKQCEGITSPEGSKSIVEGIIEEEEEDEEGSESISKRKKEDDMETKKDHPYTWRIELAKTEKYWDGWFRGLSNLFLSCPIPKLLLLAGVDRLDKDLTIGQMQGKFQMQVLPQCGHAVHEDAPDKVAEAVATFLIRHRFAEPIGGFQCVFPGC
PP2A methylesterase activity: demethylation of immunoprecipitated C subunit, immunoblot with methylation-sensitive antibody 4b7: human PME-1 is a PP2A methylesterase | amount of 3H-methyl groups remaining on C subunit after 1 h at 32° C., SDS-PAGE: PME-1 was clearly able to demethylate PP2A C subunit as measured by this assay | methylesterase activity towards PP2A C subunit: lysates of bacteria expressing PME-1 contain a PP2A methylesterase activity not found in bacterial lysates lacking PME-1 | signal of the antibody that only recognizes unmethylated PP2A against a methylation-insensitive antibody, immunoblot: PME-1 was clearly able to demethylate PP2A C subunit, as measured by this assay
